Here are results for one substance from PMC4349446.

This experiment has as its target Recombinant truncated LOX-1 (61–273 amino acids, extracellular domain) with a hexa-histidine tag (human) (UniProt P78380). Nature of the experiment: ELISA; human LOX-1 (1 μg/ml) coated on wells; hSAA3 peptide 10–2,000 ng/ml in PBS-0.05% Tween20–0.5% Triton X-100; retained peptide detected with monoclonal anti-hSAA3-HRP.

One may read the Kd as the constant that tells how readily two partners part at equilibrium. On to “hSAA3 C-terminal 26 mer synthetic peptide”, for which the dissociation constant Kd was 99 nM.
